From patent US20200299384A1
pEC50, pKd: −log10 of the molar value. Read-outs that look alike come from different tables or passages of the source.

Columns and labels:
[1] = biological target: human CD3 expressed on cells (Jurkat cells; human CD4 T cells) (human) (UniProt P07766); assay: flow cytometry on Jurkat cells, one site saturation fit
[2] = biological target: human CD3 expressed on cells (Jurkat cells; human CD4 T cells) (human) (UniProt P07766); assay: as above; remark: listed apart in the source
[3] = biological target: human CD3 expressed on cells (Jurkat cells; human CD4 T cells) (human) (UniProt P07766); assay: flow cytometry on human CD4 T cells
[4] = biological target: human CD3 expressed on cells (Jurkat cells; human CD4 T cells) (human) (UniProt P07766); assay: flow cytometry on Jurkat cells
[5] = biological target: mouse CD3epsilon protein (mouse) (UniProt P22646); assay: ELISA, antigen coated on plate
[6] = biological target: Cynomolgus Monkey CD3 epsilon protein (Cynomolgus monkey) (UniProt Q95LI5); assay: ELISA, antigen coated on plate
[7] = biological target: Human CD3 epsilon (CD3epsilon) protein (His Tag) (human) (UniProt P07766); assay: ELISA, antigen coated on plate
Chain of Human CD3 epsilon (CD3epsilon) protein (His Tag) (human) (P07766 23-126): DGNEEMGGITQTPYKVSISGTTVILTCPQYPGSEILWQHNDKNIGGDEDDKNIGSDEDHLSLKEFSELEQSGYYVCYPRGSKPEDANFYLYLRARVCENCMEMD

Chain of human CD3 expressed on cells (Jurkat cells; human CD4 T cells) (human) (P07766 23-207): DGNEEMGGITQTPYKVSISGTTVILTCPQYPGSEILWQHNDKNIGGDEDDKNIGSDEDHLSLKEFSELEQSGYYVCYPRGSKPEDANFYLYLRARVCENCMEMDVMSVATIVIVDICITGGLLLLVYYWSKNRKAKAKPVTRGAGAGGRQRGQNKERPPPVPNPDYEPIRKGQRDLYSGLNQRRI
Chain of Cynomolgus Monkey CD3 epsilon protein (Cynomolgus monkey) (Q95LI5 22-117 limits assumed): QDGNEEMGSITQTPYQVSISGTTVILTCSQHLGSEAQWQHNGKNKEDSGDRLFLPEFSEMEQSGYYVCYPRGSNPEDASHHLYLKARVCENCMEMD
Chain of mouse CD3epsilon protein (mouse) (P22646 22-108 limits assumed): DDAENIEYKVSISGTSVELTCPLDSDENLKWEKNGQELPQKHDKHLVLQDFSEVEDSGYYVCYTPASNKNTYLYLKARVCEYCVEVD

Best fit-Bmax [1] | pKd [1] | Best fit-Bmax [2] | pKd [2] | pEC50 [3] | pEC50 [4] | ELISA A450 [5] [A450] | ELISA A450 [6] [A450] | ELISA A450 [7] [A450] | pEC50 [7] | Substance
9.41e-11 | 9.89 | 6.06e-12 | 10.56 | 9.69 | 9.70 | 0.24 | 0.052 | 0.048 | – | Benchmark antibody OKT3
– | – | – | – | – | – | 0.179 | 0.046 | 0.046 | – | Negative Control (Table 7)
– | – | – | – | – | – | – | – | – | 9.73 | WBP331-BMK1 (UCHT1) (antibody)
